# Results taken from patent US20130236470A1.
# What was measured:
# [1] = target: HLA-DR expressed by L428 cells (human); assay: flow cytometry on L428 cells, antibody 3.9 ng/mL
# [2] = target: HLA-DR expressed by L428 cells (human); assay: flow cytometry on L428 cells, antibody 7.8 ng/mL
# [3] = target: HLA-DR expressed by L428 cells (human); assay: flow cytometry on L428 cells, antibody 0.98 ng/mL
# [4] = target: HLA-DR expressed by L428 cells (human); assay: flow cytometry on L428 cells, antibody 1.95 ng/mL
# [5] = target: HLA-DR expressed by L428 cells (human); assay: flow cytometry on L428 cells, antibody 15.6 ng/mL
# [6] = target: HLA-DR expressed by L428 cells (human); assay: flow cytometry on L428 cells, antibody 31.2 ng/mL
# [7] = target: HLA-DR expressed by L428 cells (human); assay: flow cytometry on L428 cells, antibody 62.5 ng/mL
# [8] = target: HLA-DR expressed by L428 cells (human); assay: flow cytometry on L428 cells, antibody 125.0 ng/mL
# [9] = target: HLA-DR expressed by L428 cells (human); assay: flow cytometry on L428 cells, antibody 250.0 ng/mL
# [10] = target: HLA-DR expressed by L428 cells (human); assay: flow cytometry on L428 cells, antibody 0.0 ng/mL (background)
substance,measurement,setting,value
commercially available antibody (clone name: LN3) known to bind to HLA-DR,Ability to bind (average strength),[1],339
same,Ability to bind (average strength),[2],430
same,Ability to bind (average strength),[3],181
same,Ability to bind (average strength),[4],230
same,Ability to bind (average strength),[5],694
same,Ability to bind (average strength),[6],928
same,Ability to bind (average strength),[7],1610
same,Ability to bind (average strength),[8],2420
same,Ability to bind (average strength),[9],3270
same,Ability to bind (average strength),[10],129
